In publication PMC12775124, “CUL4A-DDB1-DCAF10 is an N-recognin for N-terminally acetylated Src kinases” (Nature Communications, 2026):
Residue numbers refer to the chain shown, from its start. In names and notes the source's numbering stands.

B1: FLAG-DCAF10: FLAG-DCAF10 overexpression in HeLa cells (protein, UniProt Q5QP82 1-559, looked up)
DDB1- and CUL4-associated …: MFPFGPHSPGGDGSAGAGAEEPTPHEGQAAATGPPSPLHPGADATHPPPPARSPRRPGAPSLSPAPRSGELGLPGAPESSTASAPGEPSPPSPPCRRPGPDCRAKSRGRHGLGAGLGGPGARLFGWLKERSLGRGLFVDPARDNFRTMTSLYGSIHPADSVYLSTRTHGAVFNLEYSPDGSVLTVACEQTEVLLFDPISSKHIKTLSEAHEDCVNNIRFLDNRLFATCSDDTTIALWDLRKLNTKVCTLHGHTSWVKNIEYDTNTRLLVTSGFDGNVIIWDTNRYTEDGCPHKKFFHTRFLMRMRLTPDCSKMLISTSSGYLLILHDLDLTKSLEVGSYPILRARRTTSSSDLTTSSSSSGPRVSGSPCHHSDSNSSEKHMSRASQREGVSPRNSLEVVTPEVLGESDHGNCITSLQLHPKGWATLLRCSSNSDDEECTCVYEFQEGAPVRPVSPRCSLRLTHYIEEANVGRGYIKELCFSPDGRMISSPHGYGIRLLGFDKQCSELVDCLPKEASPLRVIRSLYSHNDVVLTTKFSPTHCQIASGCLSGRVSLYQPKF
modifications: FLAG tag
notes: FLAG-DCAF10 overexpression in HeLa cells
B2: DCAF10 triple mutant: DCAF10 triple mutant (F172G, K257A, and I475G) in E3 complex (protein)
chain: B1 DDB1- and CUL4-associated … with F172G, K257A, I475G
modifications: left off: MBP (as in the WT complex; not said for the mutant), end not stated, state not stated

Legend:
Lyn [1] = assay: Lyn level after FLAG-DCAF10 overexpression; format: cell-based, human; settings: HeLa, NMT1/2 KD 72 h, FLAG-DCAF10 overexpression 24 h
Experimental: (§1) 124 Supplementary Fig. 5. NMT1/2 knockdown leads to an increased turnover of SFKs
(§2) 125 and overexpression of DCAF10 reduces SFK levels after NMT1/2 knockdown.
(§3) 126 a) HeLa cells were treated with NMT1/2 siRNA for 72 h or left untreated in combination
(§4) 127 with FLAG-DCAF10 overexpression for 24 h. Representative WBs are shown. b-c) Left:
(§5) 128 WB quantifications with and without NMT1/2 siRNA of Lyn (b) and THOC7 (c)
(§6) Right: Fold change of Lyn (b) and THOC7 (c) after DCAF10
(§7) 130 overexpression. Untreated: purple; with NMT1/2 RNAi: blue. Individual data points are
(§8) 131 indicated (n = 2 or 3 independent biological replicates). MG132 = proteasome inhibitor;
(§9) 132 CHX = cycloheximide translational inhibitor. d) HeLa cells were treated for 72 h with and
(§10) 133 without NMT1/2 siRNA and treated with cycloheximide or MG132 for the indicated
(§11) 134 periods of time. Representative WBs are shown. Filled circles indicate treatment; empty
(§12) 135 circles indicate no treatment. e-h) Fold-change analysis of protein expression levels under
(§13) 136 the indicated conditions. Left: fold change after 8 h cycloheximide treatment of (e) Lyn,
(§14) 137 (f) Fyn, (g) Src and (h) THOC7. Right: fold change after 4 h MG132 treatment of (e) Lyn,
(§15) Untreated: purple; with NMT1/2 siRNA: blue (n = 3 […]
(§16) 412 serum (FBS). Cells were counted and diluted to 100,000 cells/mL. […]
(§17) 433 fraction was measured by MS (see Mass spectrometry measurements and raw file […]

THOC7 = THOC7 level after FLAG-DCAF10 overexpression; format: cell-based, human; settings: HeLa, NMT1/2 KD 72 h, FLAG-DCAF10 overexpression 24 h
Experimental: as §1, §2, §3, §4, §5, §6, §7, §8, §9, §10, §11, §12, §13, §14, §15, §16, §17

Lyn [2] = assay: In vitro ubiquitination of immunoprecipitated Lyn; format: biochemical, human; settings: DCAF10 pocket mutant complex
Text: (§18) Having established cellular regulation by DCAF10 under reduced N-myristoylation, we aimed to test whether CUL4A-DDB1-DCAF10 directly ubiquitinates SFKs. […] As we expect NMT1/2 depletion to cause a destabilization of SFKs, their equal or even greater ubiquitination in IPs from untreated cells relative to NMT1/2-depleted cells was unanticipated. We speculate that (i) Nt-acetylated SFKs may degrade rapidly, preventing their accumulation upon NMT1/2 depletion; (ii) an acetylated fraction of SFKs may exist under physiological conditions; (iii) DCAF10 might recognize additional surfaces.
(§19) Reactions contained E1, UBCH5B (E2), ubiquitin, Mg-ATP in ligation buffer and were incubated with bead-bound substrates, followed by washing and immunoblot detection of ubiquitinated species (anti-ubiquitin), with loading controls (anti-Lyn, -Fyn, -Src or -GFP) (n = 3 independent enzymatic assays). Complete reagent lists, complex preparation, substrate IP conditions, wash buffers, and gel/blot parameters are provided in the Supplementary Methods and Tables.
(§20) 357 (v/v) glycerol, 2 mM TCEP, supplemented with Protease Inhibitor Cocktail), and lysed
(§21) 358 by sonication. Lysates were cleared by centrifugation at 28,000 rpm for 45 min at 4 °C […]
(§22) 382 EDTA, and loaded on a gradient gel (4–15%). Ubiquitination of substrates was assessed
(§23) 383 by WB using an anti-ubiquitin antibody. Equal substrate loading was evaluated by anti- […]

Fyn = assay: In vitro ubiquitination of immunoprecipitated Fyn; format: biochemical, human; settings: DCAF10 pocket mutant complex
Text: as §18, §19, §20, §21, §22, §23

Src = assay: In vitro ubiquitination of immunoprecipitated Src; format: biochemical, human; settings: DCAF10 pocket mutant complex
Text: as §18, §19, §20, §21, §22, §23

Molecule	Lyn level, fold decrease compared to control cells (Lyn [1])	THOC7 level (in words) (THOC7)	Lyn ubiquitination (in words) (Lyn [2])	Fyn ubiquitination (in words) (Fyn)	Src ubiquitination (in words) (Src)
B1	~ 2.1 fold	remained unchanged			
B2			abolished ubiquitination of Lyn and Fyn	abolished ubiquitination of Lyn and Fyn	Src ubiquitination was unaffected by the mutations
